# Values of other authors as cited in PMC3184957, “Improving a Natural CaMKII Inhibitor by Random and Rational Design” (PLoS ONE, 2011).
# Molecular target: T1, CaMKIIα (Rattus norvegicus, UniProt P11275)
# T1 construct: made in house; host or cells: baculovirus/Sf9 (CaMKII); bacteria (CaM)
# Details: background statement of the abstract, no reference given; read-out: IC50 of CaMKII inhibition by CaM-KIIN
# Method: Background CaM-KIIN has evolved to inhibit stimulated and autonomous activity of the Ca^2+/calmodulin (CaM)-dependent protein kinase II (CaMKII) efficiently, selectively, and potently (IC50 ∼100 nM). The CN class of peptides, derived from the inhibitory region of CaM-KIIN, provides powerful new tools to study CaMKII functions. The goal of this study was to identify the residues required for CaMKII inhibition, and to assess if artificial mutations could further improve the potency achieved during evolution. Methodology/Principal Findings First, the minimal region with full inhibitory potency wa ...
molecule,measurement,value
"CaM-KIIN: natural CaMKII inhibitor protein expressed in brain (protein, UniProt Q7Z7J9 1-78, looked up) Calcium/calmodulin-dependent …: MSEVLPYGDEKLSPYGDGGDVGQIFSCRLQDTNNFFGAGQNKRPPKLGQIGRSKRVVIEDDRIDDVLKNMTDKAPPGV",IC50,~100 nM
